The results in this text go back to US20240294650A1 (Alector, published 2024).

The target of assay [1] is T1, endogenous murine MerTK on bone marrow-derived macrophages (mouse, UniProt Q60805 19-994).
T1 construct: whole, on cells; MFI on MerTK KO BMDM subtracted; also called BMDM WT-KO
T1 sequence (looked up): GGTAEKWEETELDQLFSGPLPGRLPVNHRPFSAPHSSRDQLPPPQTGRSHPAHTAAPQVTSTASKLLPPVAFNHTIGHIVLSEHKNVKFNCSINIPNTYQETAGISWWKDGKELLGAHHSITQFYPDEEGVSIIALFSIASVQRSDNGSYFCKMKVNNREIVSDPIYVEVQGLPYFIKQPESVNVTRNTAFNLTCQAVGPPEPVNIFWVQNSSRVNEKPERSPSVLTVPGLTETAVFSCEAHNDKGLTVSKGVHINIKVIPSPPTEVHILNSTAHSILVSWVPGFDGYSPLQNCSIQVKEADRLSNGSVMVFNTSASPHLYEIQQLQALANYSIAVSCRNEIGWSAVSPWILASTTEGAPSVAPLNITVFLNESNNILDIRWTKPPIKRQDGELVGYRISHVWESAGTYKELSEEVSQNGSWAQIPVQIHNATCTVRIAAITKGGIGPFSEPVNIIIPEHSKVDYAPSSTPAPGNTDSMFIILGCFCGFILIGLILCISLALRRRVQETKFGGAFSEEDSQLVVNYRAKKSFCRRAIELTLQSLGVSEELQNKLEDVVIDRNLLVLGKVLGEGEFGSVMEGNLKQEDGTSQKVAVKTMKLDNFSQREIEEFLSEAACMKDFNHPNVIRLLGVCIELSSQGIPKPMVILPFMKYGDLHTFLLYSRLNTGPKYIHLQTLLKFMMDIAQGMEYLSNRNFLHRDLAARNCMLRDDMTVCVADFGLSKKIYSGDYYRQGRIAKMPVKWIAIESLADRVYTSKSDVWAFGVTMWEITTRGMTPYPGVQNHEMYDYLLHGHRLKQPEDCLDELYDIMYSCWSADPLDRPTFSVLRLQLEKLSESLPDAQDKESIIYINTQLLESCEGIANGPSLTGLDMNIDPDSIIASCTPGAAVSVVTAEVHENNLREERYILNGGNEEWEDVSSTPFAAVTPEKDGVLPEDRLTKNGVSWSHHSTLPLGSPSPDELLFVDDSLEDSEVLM
As to the kind of experiment: FACS, mouse BMDM, WT minus MerTK KO. The essentials: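 Bone marrow cells from MerTK WT and KO mice differentiated into macrophages with 50 ng/ml M-CSF for seven days. Antibodies at 10 μg/ml bound 60 min on ice, then PE anti-human IgG with Fc block 30 min on ice. Flow cytometry read-out as MFI, WT signal minus KO.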
(A flow cytometer gives signals particle by particle.)

For assay [2], the target named is T2, Recombinant human MerTK-human Fc Chimera protein (human, UniProt Q12866 26-499, limits assumed).
T2 construct: bought construct; also called MerTK-Fc (R&D systems, Cat #391-MR-100)
T2 sequence: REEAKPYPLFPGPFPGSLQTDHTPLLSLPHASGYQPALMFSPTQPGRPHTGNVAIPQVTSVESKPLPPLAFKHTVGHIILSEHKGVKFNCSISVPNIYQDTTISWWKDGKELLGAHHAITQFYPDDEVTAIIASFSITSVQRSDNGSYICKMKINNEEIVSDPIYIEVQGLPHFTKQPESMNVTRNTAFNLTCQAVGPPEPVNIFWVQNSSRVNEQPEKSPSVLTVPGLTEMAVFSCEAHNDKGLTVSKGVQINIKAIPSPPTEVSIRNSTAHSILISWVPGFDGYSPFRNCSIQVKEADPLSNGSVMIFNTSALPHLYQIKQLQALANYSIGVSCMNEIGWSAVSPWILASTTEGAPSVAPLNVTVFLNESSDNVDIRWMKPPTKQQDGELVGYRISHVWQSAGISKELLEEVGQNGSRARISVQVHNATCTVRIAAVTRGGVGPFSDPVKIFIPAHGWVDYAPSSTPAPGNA
As to the kind of experiment: blocking ELISA, ProS-His on MerTK-Fc, Ab 66.6 nM, isotype=100%. Here is the method:
Briefly, rabbit anti-human IgG antibody (Jackson ImmunoResearch, Cat #309-005-008) was coated at 2 μg/ml onto high-protein binding plates at 4° C. overnight. After washing with 0.05% Tween20 in PBS three times, 5% BSA in PBS was added for 1 hour. Recombinant human MerTK-human Fe Chimera protein (R&D systems, Cat #391-MR-100) was added at 2 μg/ml for 1 hour and plates were washed before the addition of 40 μl of anti-MerTK hybridoma supernatants and 40 μl of His tag-conjugated recombinant Gas6 (R&D systems, Cat #885-GSB-050) at 3 μg/ml or His tag-conjugated recombinant ProS (R&D systems, Cat #9489-PS-100) at 20 μg/ml. After a further incubation for 1 hour, plates were washed and incubated for 1 hour with HRP-conjugated anti-6×His tagged antibody (Abcam, Cambridge, MA, Cat #ab1187). Plates were then washed and an HRP substrate, TMB, was added to develop the plates. The reaction was stopped by adding 50 μl 2N H₂SO₄ and the OD was measured using a spectrophotometer (BioTek).
Anti-MerTK antibodies were titrated to a final concentration from 66.6 nM to 4 pM and tested against anti-human MerTK antibody M6 (disclosed in WO2016/106221) or isotype control antibody.
(In general: An ELISA detects its analyte on a solid surface through an enzyme-linked reagent.)

B1: MTK-225 (antibody, human IgG1, V domains shown)
VH: EVQLQQSGPELVKPGASVKIFCKASGYTFTAYNMDWVKQSHGKSLEWIGDINPNNGGTIYNQKFKGKATLTVDKSSSTAYMELRSLTSEDTAVYYCARRRRYGNTYYWYFDVWGTGTTVTVSS
VL: DIQMTQSPASLSVSVGETVTITCRASENIYSSLAWYQQKQGKSPQLLVYAATNLADGVPSRFSGSGSGTQFYLKINGLQSEDFGSYYCQHFWGTSYTFGGGTKLEIK
Turning to B1, in assay [1], the MFI was determined as 619 MFI. The “Percent ProS ligand binding” value in assay [2] was determined as 186%.

B2: MTK-215 (antibody, human IgG1, V domains shown)
VH: EVQLVESGGGLVKPGGSLKLSCAASGFIFSDYGMHWVRQAPEKGLEWVAYISSGSSTIYYGDTVKGRFTISRDNAKNTLFLQMTSLRSEDTAMYYCAKGGRYGAMDYWGHGTSVTVSS
VL: DIVLTQSPATLSVTPGDSVSLSCRASQSISNNLHWYQQKSHESPRLLIKNPSQSISGIPSRFGARGSGTDFTLIINSVETEDLGVYFCQQSNSWPFTFGSGTKLEIK
In assay [1], B2 gave an MFI of 466 MFI. In assay [2], the “Percent ProS ligand binding” value is 81.6%.

B3: MTK-207 (antibody, human IgG1, V domains shown)
VH: QVQLKESGPGLVAPSQSLSITCTVSGISLTSYGVSWVRQPPGKGLEWLGIIWGDGSTNYHSALISRLSISKDNSKSQVFLKLNSLQTDDTATYYCAKGRYGNYEDWYFDVWGTGTTVTVSS
VL: DIQMTQSPASLSASVGETVTITCRASGNIHNYLAWYQQKQGKSPQLLVYNAKTLAAGVPSRFSGSGSGTQYSLKINSLQPEDFGSYYCQHFWSIPLTFGAGTKLELK
B3 showed an MFI in assay [1] of 989 MFI. Further, in assay [2], the “Percent ProS ligand binding” value was found to be 95.5%.
